Data on 62 molecules can be found in patent publication US20250145684A1 (IMMATICS BIOTECHNOLOGIES, published 2025).

The assay has as its target T1, HLA-B*08:01 (human).
T1 construct: MHC monomer first loaded with a UV-sensitive peptide that is cleaved by UV light and exchanged for the test peptide
The assay is described as follows: UV peptide exchange ELISA. An excerpt: Candidate peptides for T cell based therapies according to the present invention were further tested for their MHC binding capacity (affinity). The individual peptide-MHC complexes were produced by UV-ligand exchange, where a UV-sensitive peptide is cleaved upon UV-irradiation and exchanged with the peptide of interest as analyzed. Only peptide candidates that can effectively bind and stabilize the peptide-receptive MHC molecules prevent dissociation of the MHC complexes. To determine the yield of the exchange reaction, an ELISA was performed based on the detection of the light chain (β2m) of stabilized MHC complexes. The assay was performed as generally described in Rodenko et al. (Rodenko et al., 2006).
96 well MAXISorp plates (NUNC) were coated over night with 2 ug/ml streptavidin in PBS at room temperature, washed 4× and blocked for 1 h at 37° C. in 2% BSA containing blocking buffer. Refolded HLA-A*02:01/MLA-001 monomers served as standards, covering the range of 15-500 ng/ml. Peptide-MHC monomers of the UV-exchange reaction were diluted 100-fold in blocking buffer. Samples were incubated for 1 h at 37° C., washed four times, incubated with 2 ug/ml HRP conjugated anti-β2m for 1 h at 37° C., washed again and detected with TMB solution that is stopped with […]. Absorption was measured at 450 nm. Candidate peptides that show a high exchange yield (preferably higher than 50%, most preferred higher than 75%) are generally preferred for a generation and production of antibodies or fragments thereof, and/or T cell receptors or fragments thereof, as they show sufficient avidity to the MHC molecules and prevent dissociation of the MHC complexes.
With FAFGEPREL [FAFGEPREL (SEQ ID NO: 104)], the peptide exchange yield was 20 to 50%.

LPAPYQHQL [LPAPYQHQL (SEQ ID NO: 130)]: the peptide exchange yield lay within 20 to 50%.

For the molecule ESSAQPTAL [ESSAQPTAL (SEQ ID NO: 122)], the peptide exchange yield was in the range of 20 to 50%.

As to HSWTRTSV [HSWTRTSV (SEQ ID NO: 124)], the peptide exchange yield was 50 to 75%.

In the case of IMKKIRESY [IMKKIRESY (SEQ ID NO: 102)], the peptide exchange yield lay within 50 to 75%.

On to MEKGLASL [MEKGLASL (SEQ ID NO: 113)], for which the peptide exchange yield was in the range of 20 to 50%.

On to VLKTLQEL [VLKTLQEL (SEQ ID NO: 154)], for which the peptide exchange yield lay within 20 to 50%.

MRILKRFLAC [MRILKRFLAC (SEQ ID NO: 115)] displayed a peptide exchange yield of 20 to 50%.

On to YSQLSISL [YSQLSISL (SEQ ID NO: 121)], for which the peptide exchange yield was in the range of 20 to 50%.

Regarding DADLREQAL [DADLREQAL (SEQ ID NO: 143)], the peptide exchange yield lay in the range of 20 to 50%.

For HRILRLPAL [HRILRLPAL (SEQ ID NO: 129)], the peptide exchange yield is 50 to 75%.

Regarding ELILKRCL [ELILKRCL (SEQ ID NO: 14)], the peptide exchange yield fell in the range of 50 to 75%.

Consider DFYLRSSAF [DFYLRSSAF (SEQ ID NO: 12)], for which the peptide exchange yield lay within 50 to 75%.

In turn, EPVIRTVSI [EPVIRTVSI (SEQ ID NO: 127)] had a peptide exchange yield of 50 to 75%.

For ILKEQSSSSF [ILKEQSSSSF (SEQ ID NO: 156)], the peptide exchange yield is 20 to 50%.

In turn, DVNPVSLQL [DVNPVSLQL (SEQ ID NO: 148)] came in with a peptide exchange yield of 20 to 50%.

As to YGRIGISLF [YGRIGISLF (SEQ ID NO: 139)], the peptide exchange yield fell in the range of 20 to 50%.

Consider TQHLTVATL [TQHLTVATL (SEQ ID NO: 138)], for which the peptide exchange yield is 50 to 75%.

On to IEQIRAVL [IEQIRAVL (SEQ ID NO: 144)], for which the peptide exchange yield was 20 to 50%.

In turn, IAVDKPITL [IAVDKPITL (SEQ ID NO: 140)] registered a peptide exchange yield of 20 to 50%.

In turn, NALDPLSAL [NALDPLSAL (SEQ ID NO: 112)] returned a peptide exchange yield of 20 to 50%.

On to YNLIYSMCL [YNLIYSMCL (SEQ ID NO: 142)], for which the peptide exchange yield lay within 50 to 75%.

As for RSYYHPTNL [RSYYHPTNL (SEQ ID NO: 108)], the peptide exchange yield is 20 to 50%.

Molecule DRHLTNRVL [DRHLTNRVL (SEQ ID NO: 151)] had a peptide exchange yield of 20 to 50%.

In turn, HAMDGASHL [HAMDGASHL (SEQ ID NO: 147)] showed a peptide exchange yield of 20 to 50%.

Take FQRVSSVSF [FQRVSSVSF (SEQ ID NO: 119)]: the peptide exchange yield lay within 50 to 75%.

In turn, VQWKPPAL [VQWKPPAL (SEQ ID NO: 137)] yielded a peptide exchange yield of 20 to 50%.

Molecule LPASFPAVL [LPASFPAVL (SEQ ID NO: 155)] showed a peptide exchange yield of 20 to 50%.

As to HAIPHYVTM [HAIPHYVTM (SEQ ID NO: 153)], the peptide exchange yield lay in the range of 20 to 50%.

Molecule IANLRVKNI [IANLRVKNI (SEQ ID NO: 103)] had a peptide exchange yield of 50 to 75%.

Consider FQTAHFYL [FQTAHFYL (SEQ ID NO: 146)], for which the peptide exchange yield fell in the range of 50 to 75%.

In turn, PVKPKFYL [PVKPKFYL (SEQ ID NO: 114)] gave a peptide exchange yield of 20 to 50%.

The molecule VGPNGFKSL [VGPNGFKSL (SEQ ID NO: 117)] had a peptide exchange yield of 20 to 50%.

For the molecule APLKMLALV [APLKMLALV (SEQ ID NO: 105)], the peptide exchange yield was 20 to 50%.

AQRSEMVTL [AQRSEMVTL (SEQ ID NO: 120)] came in with a peptide exchange yield of 20 to 50%.

For DQRSRATL [DQRSRATL (SEQ ID NO: 134)], the peptide exchange yield is 20 to 50%.

In the case of FNKLVTEL [FNKLVTEL (SEQ ID NO: 152)], the peptide exchange yield fell in the range of 20 to 50%.

For the molecule IPIQAHQI [IPIQAHQI (SEQ ID NO: 132)], the peptide exchange yield was in the range of 50 to 75%.

Molecule QATPRVRIL [QATPRVRIL (SEQ ID NO: 133)] returned a peptide exchange yield of 20 to 50%.

In turn, IPASHPVLTL [IPASHPVLTL (SEQ ID NO: 109)] displayed a peptide exchange yield of 20 to 50%.

Turning to MGKFKQCF [MGKFKQCF (SEQ ID NO: 10)], the peptide exchange yield fell in the range of 50 to 75%.

Take GAGLRITAPL [GAGLRITAPL (SEQ ID NO: 111)]: the peptide exchange yield was 20 to 50%.

As for LPKGLKDWQA [LPKGLKDWQA (SEQ ID NO: 107)], the peptide exchange yield fell in the range of 20 to 50%.

TQKSVQVL [TQKSVQVL (SEQ ID NO: 149)] yielded a peptide exchange yield of 20 to 50%.

The molecule MSTKTTSI [MSTKTTSI (SEQ ID NO: 131)] had a peptide exchange yield of 20 to 50%.

Turning to ALKLKVAEL [ALKLKVAEL (SEQ ID NO: 1)], the peptide exchange yield is 20 to 50%.

Consider MAFVKHLL [MAFVKHLL (SEQ ID NO: 118)], for which the peptide exchange yield lay in the range of 50 to 75%.

As to HLHLLETSI [HLHLLETSI (SEQ ID NO: 106)], the peptide exchange yield fell in the range of 20 to 50%.

For MAPLKMLAL [MAPLKMLAL (SEQ ID NO: 11)], the peptide exchange yield fell in the range of 50 to 75%.

LLKKIEHA [LLKKIEHA (SEQ ID NO: 15)] showed a peptide exchange yield of 20 to 50%.

Consider MIYRKALRL [MIYRKALRL (SEQ ID NO: 145)], for which the peptide exchange yield was 20 to 50%.

Molecule DAMTKHTL [DAMTKHTL (SEQ ID NO: 110)] came in with a peptide exchange yield of 50 to 75%.

The molecule EPFTRPVL [EPFTRPVL (SEQ ID NO: 13)] returned a peptide exchange yield of 20 to 50%.

Take FPLVTPLL [FPLVTPLL (SEQ ID NO: 125)]: the peptide exchange yield was 50 to 75%.

Molecule TAAEARLSL [TAAEARLSL (SEQ ID NO: 126)] had a peptide exchange yield of 20 to 50%.

AQLKLVAL [AQLKLVAL (SEQ ID NO: 141)] gave a peptide exchange yield of 20 to 50%.

Take FTQNPRVQL [FTQNPRVQL (SEQ ID NO: 116)]: the peptide exchange yield was in the range of 20 to 50%.

In the case of MRSSYIREL [MRSSYIREL (SEQ ID NO: 150)], the peptide exchange yield lay in the range of 20 to 50%.

On to EYLETKRLAF [EYLETKRLAF (SEQ ID NO: 135)], for which the peptide exchange yield is 10 to 20%.

With SLLPFTLSF [SLLPFTLSF (SEQ ID NO: 123)], the peptide exchange yield lay in the range of 20 to 50%.

With HFHNRHVF [HFHNRHVF (SEQ ID NO: 128)], the peptide exchange yield was in the range of 50 to 75%.

KMFYRKDVM [KMFYRKDVM (SEQ ID NO: 136)] came in with a peptide exchange yield of 50 to 75%.
